Assay results from patent publication US20250011363A1, “OPTIMIZED SHORTENED PEPTIDE THAT BINDS TO ACETYLCHOLINE RECEPTOR, AND USE THEREOF” (SKINMED CO., LTD., priority 2021, published 2025).

These binders were tested against acetylcholine receptor (assay: SPR, receptor immobilised on chip, peptide at 10 uM).

Binding affinity (RU)	Binder
43 RU	KEMWKK [6mer-2-998]
30 RU	KISFKK [6mer-2-997]

The binders below were run against acetylcholine receptor (assay: SPR, peptide at 10 uM on immobilized AchR).

Binding affinity (RU)	Binder
22 RU	RACDKR [6mer-2-1041]
38 RU	RAWKKR [6mer-2-1008]
29 RU	KPHWKR [6mer-2-1072]
24 RU	RPTKKK [6mer-2-1018]
31 RU	RPHVRR [6mer-2-1070]
31 RU	KETVKR [6mer-2-1032]
36 RU	RANHKK [6mer-2-1010]
42 RU	RHTNKK [6mer-2-1007]
26 RU	KIHWKK [6mer-2-1037]
22 RU	RNDERK [6mer-2-1056]
26 RU	KAEFKR [6mer-2-1023]
36 RU	KKMFRK [6mer-2-1042]
21 RU	KHDKKR [6mer-2-1020]
39 RU	RCSHRR [6mer-2-1025]
41 RU	RHAHRR [6mer-2-1045]
25 RU	RKKKKK [6mer-2-1057]
38 RU	KPPIKK [6mer-2-1061]
31 RU	RATIKR [6mer-2-999]
24 RU	RMPWKK [6mer-2-1058]
43 RU	KKNKKR [6mer-2-1054]
26 RU	RIHVKK [6mer-2-1068]
25 RU	KAKNKR [6mer-2-1036]
37 RU	RFHNKR [6mer-2-1024]
26 RU	RNHFRK [6mer-2-1039]
24 RU	RKHMRR [6mer-2-1051]
24 RU	RFNVRK [6mer-2-1063]

Binding affinity (RU)	Binder
36 RU	KYAWRK [6mer-2-1040]
37 RU	RKKFKK [6mer-2-1001]
33 RU	KHWERK [6mer-2-1038]
23 RU	RFKARR [6mer-2-1005]
38 RU	RDTHKR [6mer-2-1004]
28 RU	KMDEKK [6mer-2-1033]
34 RU	KEMGKK [6mer-2-1053]
23 RU	KPPDKR [6mer-2-1013]
29 RU	RDEIRK [6mer-2-1067]
40 RU	RAPVRR [6mer-2-1017]
28 RU	RHDDKR [6mer-2-1047]
33 RU	KENHRK [6mer-2-1026]
30 RU	RATMRR [6mer-2-1006]
22 RU	RAEFRR [6mer-2-1011]
33 RU	RPMGRK [6mer-2-1074]
22 RU	RIHNRK [6mer-2-1048]
40 RU	RDKGKK [6mer-2-1043]
23 RU	KAPARK [6mer-2-1052]
33 RU	RAWERK [6mer-2-1031]
38 RU	KHSWRR [6mer-2-1034]
42 RU	RCNDKR [6mer-2-1002]
35 RU	KYNIRK [6mer-2-1062]
41 RU	RNEEKR [6mer-2-1016]
41 RU	KHTDKK [6mer-2-1044]
32 RU	KTPVKK [6mer-2-1027]
41 RU	KCHDKK [6mer-2-1000]

Binding affinity (RU)	Binder
25 RU	RTTWRK [6mer-2-1071]
35 RU	RFADRR [6mer-2-1059]
39 RU	RYTPKR [6mer-2-1021]
26 RU	KMSPRR [6mer-2-1049]
22 RU	KCNPRR [6mer-2-1022]
24 RU	KYSWRK [6mer-2-1073]
35 RU	KTNERK [6mer-2-1060]
36 RU	KHDMKK [6mer-2-1069]
39 RU	RNSEKR [6mer-2-1046]
27 RU	RIANRK [6mer-2-1065]
28 RU	RAPFKK [6mer-2-1030]
30 RU	KPDFKR [6mer-2-1055]
26 RU	KPPPRK [6mer-2-1050]
29 RU	KPEHKR [6mer-2-1066]
23 RU	RNTWKK [6mer-2-1019]
34 RU	RPPMRR [6mer-2-1014]
42 RU	KPEWKR [6mer-2-1003]
30 RU	KASAKK [6mer-2-1012]
39 RU	RCMKRR [6mer-2-1064]
34 RU	KINPRK [6mer-2-1009]
39 RU	RPPVKK [6mer-2-1035]
29 RU	RDEMKR [6mer-2-1015]
41 RU	KPEHRR [6mer-2-1028]
40 RU	KEEFKK [6mer-2-1029]
